Measured values: patent US20250340881A1, “PHARMACEUTICAL COMPOSITION FOR TREATING CANCER COMPRISING FOXM1 MUTANT OR FOXM1 SHRNA” (Industry-University Cooperation Foundation Hanyang …, priority 2022, published 2025)
Numbering of substitutions follows the chain as printed. Numbers in names are those of the source.

B1: S25E: FoxM1 phosphorylated point mutant of the S25 residue, expressed by lentivirus in A549 cells (protein, listed as Homo sapiens)
chain: MKTSPRRPLILKRRRLPLPVQNAPEETSEEEPKRSPAQQESNQAEASKEVAESNSCKFPAGIKIINHPTMPNTQVVAIPNNANIHSIITALTAKGKESGSSGPNKFILISCGGAPTQPPGLRPQTQTSYDAKRTEVTLETLGPKPAARDVNLPRPPGALCEQKRETCDGEAAGCTINNSLSNIQWLRKMSSDGLGSRSIKQEMEEKENCHLEQRQVKVEEPSRPSASWQNSVSERPPYSYMAMIQFAINSTERKRMTLKDIYTWIEDHFPYFKHIAKPGWKNSIRHNLSLHDMFVRETSANGKVSFWTIHPSANRYLTLDQVFKQQQKRPNPELRRNMTIKTELPLGARRKMKPLLPRVSSYLVPIQFPVNQSLVLQPSVKVPLPLAASLMSSELARHSKRVRIAPKVLLAEEGIAPLSSAGPGKEEKLLFGEGFSPLLPVQTIKEEEIQPGEEMPHLARPIKVESPPLEEWPSPAPSFKEESSHSWEDSSQSPTPRPKKSYSGLRSPTRCVSEMLVIQHRERRERSRSRRKQHLLPPCVDEPELLFSEGPSTSRWAAELPFPADSSDPASQLSYSQEVGGPFKTPIKETLPISSTPSKSVLPRTPESWRLTPPAKVGGLDFSPVQTSQGASDPLPDPLGLMDLSTTPLQSAPPLESPQRLLSSEPLDLISVPFGNSSPSDIDVPKPGSPEPQVSGLAANRSLTEGLVLDTMNDSLSKILLDISFPGLDEDPLGPDNINWSQFIPELQ
B2: S25A: FoxM1 protein with Ser25 substituted with alanine, non-phosphorylated point mutant, expressed by lentivirus in A549 cells (protein)
chain: B1 chain with E25A
modifications: left off: a dimerising Fc or GST
notes: FoxM1 protein with Ser25 substituted with alanine, non-phosphorylated point mutant, expressed by lentivirus in A549 cells

Tests used:
A549 cancer cells = test: Tail vein injection metastatic cancer animal model with A549 cells expressing FoxM1 mutants; assay type: in vivo, mice; conditions: for cancer metastasis to lung and tumorigenesis (tumorigenicity): A549 cells expressing the mutant injected into tail vein of mice; for degree of cancer cell proliferation by H&E and Ki67 staining: lung tissue of injected mice
Description: To observe the tumorigenic potential of cancer cells in animal models, the present inventors aimed to evaluate the tumorigenicity-promoting and -suppressing effects of cancer cells by using cancer cells expressing phosphorylation and non-phosphorylated point mutants of FoxM1 S25 residue.
Specifically, A549 cancer cells (2×10^6 cells) stably expressing FoxM1 protein containing point mutations were diluted in PBS and injected into the tail vein of mice. The mice were raised for 8 weeks, and then laparotomy was performed to observe cancer cell metastasis and tumorigenesis in organs.

A549 lung cancer cells [1] = test: Transwell migration assay of A549 cells expressing FoxM1 WT or point mutants; assay type: cell-based; conditions: for migration / motility of cancer cells (in words): Transwell migration assay, A549
Description: To examine the effects of FoxM1 WT, phosphorylation, and non-phosphorylated point mutants on the motility of cancer cells, the migration assay was performed in A549 lung cancer cells expressing mutant proteins.
Specifically, 5×10^4 cells of lung cancer cells A549 expressing each of WT, phosphorylation, and non-phosphorylated point mutant of FoxM1 were seeded in an 8.0 μm, 24 well insert, and the inserts were placed in a 24-well plate after medium with 10% fetal bovine serum (FBS) was dispensed in the 24-well plate. For the positive control, 0.5 ml of RPMI1640 (10% FBS) containing 5 ng/ml of TGF-β was used. After 72 hours from cell seeding, 500 μl of 4% paraformaldehyde was dispensed, washed three times with 1×PBS, and stained with 0.05% crystal violet solution for 5 minutes. After 5 minutes, the cells were washed five times with 1×PBS, and the staining intensity was measured using the Odyssey infrared imaging system.
Specifically, 5×10^4 cells of lung cancer cells A549 expressing control and FoxM1 WT were seeded in an 8.0 μm, 24 well insert, and the inserts were placed in a 24-well plate after medium with 10% fetal bovine serum (FBS) was dispensed in the 24-well plate. For the positive control, 0.5 ml of RPMI1640 (10% FBS) containing 5 ng/ml of TGF-β was added and used. After 72 hours from cell seeding, 500 μl of 4% paraformaldehyde was dispensed, washed three times with 1×PBS, and stained with 0.05% crystal violet solution for 5 minutes. After 5 minutes, the cells were washed five times with 1×PBS, and the staining intensity was measured using the Odyssey infrared imaging system.

A549 cells [2] = test: Caspase-3 assay in A549 cells over-expressing FoxM1 point mutants; assay type: cell-based; conditions: doxycycline 3 μg/ml 48 hours, control set to 1
Description: Furthermore, to observe the degree of apoptosis of cancer cells in A549 cells expressing each of the phosphorylation and non-phosphorylated point mutants of FoxM1, a caspase-3 assay was performed to measure the activity of the caspase-3 enzyme (FIG. 5F). A549 cells expressing each protein containing the phosphorylation and non-phosphorylation point mutation of FoxM1 were administered with 3 μg/ml of doxycycline for 48 hours to induce over-expression of each mutant. The cells were lysed and reacted with the fluorescence substrate of caspase-3 (Ac-DEVD-AMC) for 1 hour, and then the fluorescence value (Ex. 380 nm/Emi. 430 nm) was measured using an electron spectrometer (SpectraMax M4 system). The measured fluorescence value indicated the activity of caspase-3, and the relative measurement value in each experimental group was calculated and depicted by a graph, when the measured fluorescence value of the control group set to 1.

A549 lung cancer cells [3] = test: EMT marker expression (immunoblot, real-time PCR) in A549 cells expressing FoxM1 WT or mutants; assay type: cell-based; conditions: A549 cells expressing the mutant
Description: To establish a stabilized cell line expressing WT, phosphorylation, and non-phosphorylated point mutants of FoxM1 in lung cancer cells, A549 cells were first infected with pLVX-Tet3G expressing lentivirus, and the infected cells were selected by treating with G418 for 5 days. The selected A549Tet3G cells were infected with lentiviruses expressing WT and phosphorylated point mutants (S25E, S361E, S715E) and non-phosphorylated point mutants (S25A, S361A, S715A) of FoxM1, and then treated with puromycin for 48 hours to establish a stabilized cell line. The established cells were treated with 2 μg/ml of doxycycline to induce expression of WT, phosphorylation, and non-phosphorylated point mutants of FoxM1, and the mRNA and protein expression levels of each FoxM1 point mutant were determined to confirm whether they were well expressed. As shown in FIG. 4A and FIG. 4B, it was confirmed that the WT and each point mutant form of FoxM1 were well expressed through mRNA and protein expression levels. It was observed that the expression levels of N-cadherin and vimentin were higher, and the expression levels of E-cadherin were lower in lung cancer cells expressing the phosphorylated form of FoxM1, specifically, phosphorylated at the phosphorylation site S25, compared to the cells expressing the non-phosphorylated form of FoxM1. In addition, when it was examined whether the expression of these phosphorylation and non-phosphorylated point mutants of FoxM1 affected cell proliferation, it was observed that it had no significant effect on cell proliferation (FIG. 4C).
To establish a stabilized cell line expressing FoxM1 WT in A549 lung cancer cells, first, pLVX-Tet3G expressing lentivirus was infected into cells, and the infected cells were selected by treating 500 μg/ml of G418 for 5 days. The selected A549^Tet3G cells were infected with lentiviruses expressing FoxM1 WT or Mock, and the stabilized cell lines were established by treating with 2 μg/ml of puromycin for 48 hours. After inducing the expression of FoxM1 WT by treating the established cells with 2 μg/ml of doxycycline, the protein expression was observed by immunoblot.

A549 cells [4] = test: MTT viability of A549 cells co-cultured with THP-1 cells and Jurkat cells; assay type: cell-based; conditions: ratios 1:0:0, 1:6:0, 1:0:6, 1:6:6, 48 h
Description: To investigate the polarization into tumor-infiltrating T lymphocytes (TILs) by A549^S25E cells, the expression levels of CD25 and CD29, which were expressed in TILs, were analyzed by qRT-PCR after co-culturing Jurkat cells (1.2×10^5 cells) and A549^S25E cells (4×10^4 cells) for 48 h. As a result, it was observed that there was a significant increase of 3 folds or more, in the expression of CD25 and CD29 in Jurkat cells co-cultured with A549^S25E cells. […] Additionally, to investigate the inhibitory effect of A549^S25A cells on tumor immune evasion by TAMs or TILs in the tumor microenvironment, the viability change was examined by an MTT assay analysis after co-culturing A549 cells expressing the FoxM1 phosphorylation or non-phosphorylated point mutant, THP-1 cells, and Jurkat cells at a ratio of 1:0:0, 1:6:0, 1:0:6, and 1:6:6 for 48 h. […] That is, there was the inhibitory effect of the cells expressing non-phosphorylated point mutant on the tumor immune evasion by TAMs or TILs in the tumor microenvironment. Therefore, the present invention provided the inhibitory effects of the non-phosphorylated point mutant of FoxM1 on tumor immune evasion.

Molecule	cancer metastasis to lung and tumorigenesis (tumorigenicity) (A549 cancer cells)	cancer metastasis to lung and tumorigenesis (tumorigenicity) (A549 cancer cells; listed as S325E)	degree of cancer cell proliferation by H&E and Ki67 staining (A549 cancer cells)	migration / motility of cancer cells (in words) (A549 lung cancer cells [1])	cancer cell migration (stained intensity), increase compared to the control group (A549 lung cancer cells [1]; Transwell, 72 hours, control set to 1, TGF-β 5 ng/ml positive control)	staining intensity value compared to the control group (A549 lung cancer cells [1]; migration assay, 72 hours, control set to 1)	activity of caspase-3 (apoptosis) (A549 cells [2])	expression of N-cadherin (CDH2), qRT-PCR and Western blot (A549 lung cancer cells [3])	viability change of A549 cells co-cultured with THP-1 and Jurkat cells (A549 cells [4])	cancer metastasis to lung and tumorigenesis (tumorigenicity) (A549 cancer cells; listed as FoxM1 protein containing the non-phosphorylation point mutations)	cancer metastasis to lung and tumorigenesis (tumorigenicity) (A549 cancer cells; listed as non-phosphorylated point mutant of FoxM1)	migration / motility of cancer cells (in words) (A549 lung cancer cells [1]; listed as S25 non-phosphorylated point mutant of FoxM1)
B1	significantly higher	highest tumorigenicity	high	promoted the motility of lung cancer cells	approximately 6 fold	up to 6 times	lowest activity of caspase-3	increased	significantly increased	–	–	–
B2	more effective in reducing the metastasis and suppressing the tumorigenic potential	–	significantly low	reduced	–	–	highest activity of caspase-3	reduced and inhibited	reduced	relatively low	no tumors were formed	effectively suppressed the motility of lung cancer cells
